We go through 3 molecules from publication PMC8138844 (Cell Research, 2021).

Sequences and labels used below:
B1: BD-623 Fab (Fab, V domains shown)
VH: EVQLVESGGGLVQPGGSLRLSCAASGVTVSSNYMSWVRQAPGKGLEWVSAVYSGGSTYYADSVKGRFTISRHNSKNTLYLQMKSLRPEDTAIYYCARLINHYYDSSGDGGAFDIWGQGTMVTVSS
VL: LTQPASVSGSPGQSITISCTGTSSDVGSYNLVSWYQQRPGKAPKLILYEVTKRPSGVSNRFSGSKSGNTASLAISGLQAEDEADYYCCSYAGSSTWVFGGGTKLTVL
B2: BD-508 Fab (Fab, V domains shown)
VH: EVQLVESGGGLVQPGGSLRLSCAASGFIVSSNYMTWVRQAPGKGLEWVSVIYSGGSTFYADSVKGRFTISRHNSKNTLFLQMNSLRAEDTAVYYCARDAQNYGMDVWGQGTTVTVSS
VL: DIQMTQSPSSLSASVGDRVTITCRASQSISSYLNWYQQKPGKAPKLLIFAASSLQTGAPSRFSGSGSGTDFTLTISSLQPEDFATYYCQQSYSTPPYTFGQGTKLEIK
B3: BD-515 Fab (Fab, V domains shown)
VH: EVQLVESGGGLVQPGGSLRLSCAASEFIVSRNYMSWVRQAPGKGLEWVSVIYSGGSTFYADSVKGRFTISRDNSKNTLYLQMNSLRAEDTGVYYCARDRGLVSDYWGQGTLVTVSS
VL: DIQMTQSPSSLSASVGDRVTITCQASQDINKYLNWYQQKPGKAPKLLIFDASHLETGVPSRFSASGSGTDFTFTISSLQPEDIATYYCHQYDNLPRTFGQGTRLEIK

In this assay the target is SARS-CoV-2 S protein receptor-binding domain (RBD), residues 319–541 (SARS-CoV-2, UniProt P0DTC2). The assay is described as follows: crystal structure. The settings on record: both partners purified.
For B1, the binding result is listed as “binds”. The same measure for B2: “binds”; for B3: “binds”.
